Test results taken from publication PMC2955198 (Cell, 2010).

Target: T1, Csm1/Lrs4 complex (S. cerevisiae, UniProt P25651 1-190; Q04087 1-347)
T1 sequence (looked up) 1: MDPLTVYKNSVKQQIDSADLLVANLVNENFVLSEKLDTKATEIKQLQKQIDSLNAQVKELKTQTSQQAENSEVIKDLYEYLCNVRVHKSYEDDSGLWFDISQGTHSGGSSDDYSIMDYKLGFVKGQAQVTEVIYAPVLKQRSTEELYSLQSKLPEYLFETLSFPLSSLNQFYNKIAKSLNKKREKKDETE
T1 sequence (looked up) 2: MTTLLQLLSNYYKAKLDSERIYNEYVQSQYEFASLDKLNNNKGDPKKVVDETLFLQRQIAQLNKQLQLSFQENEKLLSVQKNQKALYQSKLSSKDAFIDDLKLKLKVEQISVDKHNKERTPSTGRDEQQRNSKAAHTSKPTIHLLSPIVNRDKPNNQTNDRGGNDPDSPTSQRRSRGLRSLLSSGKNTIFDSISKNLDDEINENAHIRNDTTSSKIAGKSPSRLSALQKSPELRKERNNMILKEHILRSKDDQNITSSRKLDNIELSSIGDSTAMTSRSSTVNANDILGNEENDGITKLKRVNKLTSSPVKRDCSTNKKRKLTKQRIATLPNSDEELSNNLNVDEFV
Assay: SEC

B1: purified four-protein MIND (Mtw1 including Nsl1, Nnf1, and Dsn1) kinetochore complex (complex, S. cerevisiae)
chain 1: MSAPTMRSTSILTEHLGYPPISLVDDIINAVNEIMYKCTAAMEKYLLSKSKIGEEDYGEEIKSGVAKLESLLENSVDKNFDKLELYVLRNVLRIPEEYLDANVFRLENQKDLVIVDENELKKSEEKLREKVNDVELAFKKNEMLLKRVTKVKRLLFTIRGFKQKLNELLKCKDDVQLQKILESLKPIDDTMTLLTDSLRKLYVDSESTSSTEEVEALLQRLKTNGKQNNKDFRTRYIDIRTNNVLRKLGLLGDKEDEKQSAKPDARTQAGDIVSIDIEEPQLDLLDDVL
chain 2: MSQGQSKKLDVTVEQLRSIYHQFHDILEEKTDLHLPKKEYDDDAVRREVQIQLQEFLLSAMTMASKSLEVVNADTVGKTVKQLIMESQEKYMEPFDLDLNEQVRKMYQEWEDETVKVAQLRQTGPAKINEVYNNSKDEYLAQLDGRIGVLQARMMQQQSADHDDSTDDADDHINWEHIKQDYVASLNELYQTQQDLPKVRYNVEKVKRLMDFLEED
chain 3: MVNSHGIRYIRLKQVFNRALDQSISKLQSWDKVSSCFPQYVNSKQGAINVANCQRQLTEFWTELCQREFKEIMEERNVEQKLNELDELILEAKERYTDRDQDEVNKGPAIDELSSKELVECHLYSQRMHAIHEIDERLAKVNEMNDQLAQELKDLETQVEVEKNEIGKMYDEYLGSHTDQPANVLLVQSLNDMVLELKENY
chain 4: MSLEPTQTVSGTPPMLHQRTHKQVYPLRMETIPILESDSKATLQSNEPTQKDEEETEYFENKQSVSNLSPDLKFKRHKNKHIQGFPTLGERLDNLQDIKKAKRVENFNSSAPIADDNHSGDATANATANATANATANVNASAMPAPYMPYYYYYHPMNAPTPAMIPYPGSPMHSIMPNSSLQPFYSQPTAAGGPDMTTPQNISSSQQLLPAPQLFPYGSFHQQQLQQPHYIQRTRERKKSIGSQRGRRLSMLASQANGGSTIISPHKDIPEEDFYTVVGNASFGKNLQIRQLFNWCLMRSLHKLELKAKNQEEEGELEHLTKKSKLESTKAETDYVDPKRLAMVIIKEFVDDLKKDHIAIDWEDEEKYEDEDEEKILDNTENYDDTELRQLFQENDDDDDDDDEVDYSEIQRSRRKFSERRKALPKEPKKLLPNSKNVENTKNLSILTSKVNAIKNEVKEWAVTLDTSRPDLEWQELTSFSSQPLEPLSDTEEPDLAIADVETKLETKVDELRYQSHILNSHSLALNEITNSKVNKLNIETMRKISSETDDDHSQVINPQQLLKGLSLSFSKKLDL
stoichiometry N: ≤ 4 MIND complexes per Csm1/Lrs4 complex
